In the DeepSol protein solubility set:

Experiment: soluble on expression in E. coli; label from the status in PepcDB or PDB records

Soluble on expression in E. coli, soluble:
MRGSHHHHHHGIQMVSIAINGFGRIGRLVLRIALERKNIDVVAINDPFISVDYAAYMFKYDSTHGKYKGEVSHDGSNLIINGKKVAVFQEKDPATLPWGKLGVDIAVDSTGVFKELDSAQKHIDAGAKKVVITAPSKTAPMFVVGVNEDKYNGEKIVSNASCTTNCLAPIAKIINDEFGIEEGLMTTVHSITATQKTVDGPSHKDWRGGRTASGNIIPSSTGAAKAVGKVLPELQGKLTGMAFRVPTTDVSVVDLTVKLVKAATYDEIKAAVKKVSEGKLKDVVGYTEDAVVSSDFLGDTHSTIFDAAAGIQLSPKFVKLVAWYDNEYGYSTRVVDLVEHVA, MRGSHHHHHHGSACCASRDDWRCARSMHEFSAKDIDGHMVNLDKYRGFVCIVTNVASQCGKTEVNYTQLVDLHARYAECGLRILAFPCNQFGKQEPGSNEEIKEFAAGYNVKFDMFSKICVNGDDAHPLWKWMKIQPKGKGILGNAIKWNFTKFLIDKNGCVVKRYGPMEEPLVIEKDLPHYF, MRGSHHHHHHGSACMFSNKTRQDSIQKMQQEELDLLIIGGGITGAGVAVQAAASGIKTGLIEMQDFAEGTSSRSTKLVHGGIRYLKTFDVEVVADTVGERAVVQGIAPHIPKPDPMLLPIYEDEGATTFNMFSVKVAMDLYDKLANVTGTKYENYTLTPEEVLEREPFLKKEGLKGAGVYLDFRNNDARLVIDNIKKAAEDGAYLVSKMKAVGFLYEGDQIVGVKARDLLTDEVIEIKAKLVINTSGPWVDKVRNLNFTRPVSPKMRPTKGIHLVVDAKKLPVPQPTYFDTGKQDGRMVFAIPRENKTYFGTTDTDYQGDFTDPKVTQEDVDYLLDVINHRYPEANITLADIEASWAGLRPLLIGNSGSPSTISRGSSLEREPDGLLTLSGGKITDYRKMAEGALRLIRQLLKEEYGIETKEIDSKKYQISGGNFDPTKLEETVTELAKEGVAAGLEEEDATYIADFYGTNARRIFELAKEMAPYPGLSLAESARLRYGLEEEMVLAPGDYLIRRTNHLLFERDQLDEIKQPVIDAIAEYFGWTEEEKAQQTKRLEALIAESDLRELKGEK, MRGSHHHHHHGSAELHLESRGGSGTQLRDGAKVATGRIICREAHTGFHVWMNERQVDGRAERYVVQSKDGRHELRVRTGGDGWSPVKGEGGKGVSRPGQEEQVFFDVMADGNQDIAPGEYRFSVGGACVVPQEDNKQGFTPSGTTGTTKLTVT, MRGSHHHHHHGSMGKGITGFDPSLYSYLQSISADDSFYLAQLRRETAHLPGAPMQISPEQAQFLGLLISLTGAKQVLEIGVFRGYSALAMALQLPPDGQIIACDQDPNATAIAKKYWQKAGVAEKISLRLGPALATLEQLTQGKPLPEFDLIFIDADKRNYPRYYEIGLNLLRRGGLMVIDNVLWHGKVTEVDPQEAQTQVLQQFNRDLAQDERVRISVIPLGDGMTLALKK, MRGSHHHHHHTDPALRADYRKIIKEIGRGKNHARDLDRDTARGLYAHMLNGEVPDLELGGVLIALRIKGEGEAEMLGFYEAMQNHTIKLTPPAGKPMPIVIPSYNGARKQANLTPLLAILLHKLGFPVVVHGVSEDPTRVLTETIFELMGITPTLHGGQAQAKLDEHQPVFMPVGAFCPPLEKQLAMRWRMGVRNSAHTLAKLATPFAEGEALRLSSVSHPEYIGRVAKFFSDIGGRALLMHGTEGEVYANPQRCPQINLIDREGMRVLYEKQDTAGSELLPQAKDPETTAQWIERCLAGSEPIPESLKIQMACCLVATGEAATISDGLARVNQAFGLCGR, MRGSHHHHHHTDPALRASSNTFTLGTKSVNRLGYGAMQLAGPGVFGPPRDRHVAITVLREALALGVNHIDTSDFYGPHVTNQIIREALYPYSDDLTIVTKIGARRGEDASWLPAFSPAELQKAVHDNLRNLGLDVLDVVNLRVMMGDGHGPAEGSIEASLTVLAEMQQQGLVKHIGLSNVTPTQVAEARKIAEIVCVQNEYNIAHRADDAMIDALAHDGIAYVPFFPLGGFTPLQSSTLSDVAASLGATPMQVALAWLLQRSPNILLIPGTSSVAHLRENMAAEKLHLSEEVLSTLDGISREGLCGR, MRHAKSAYPDGIADHDRPLAPRGIREAGLAGGWLRANLPAVDAVLCSTATRARQTLAHTGIDAPARYAERLYGAAPGTVIEEINRVGDNVTTLLVVGHEPTTSALAIVLASISGTDAAVAERISEKFPTSGIAVLRVAGHWADVEPGCAALVGFHVPR
